Patent publication US12365710B2, “HMGB1 protein derivatives for the removal of biofilms” (RESEARCH INSTITUTE AT NATIONWIDE CHILDREN'S HOSPITAL, priority 2018, dated 2025)
Read-outs that look alike come from different tables or passages of the source.

Legend:
B. cenocepacia = format: in vivo, C57BL/6 mice; details: for Bc CFU in lung tissue / Bc CFU in BAL: 10^7 CFU Bc i.t. with 0.2 nmol protein simultaneously, 18 h; for Bc CFU in lung tissue: data not shown, P<0.05; for Bc CFU in BAL: vs control mice; for aggregate biofilm formation / development in vivo: lung model, 0.2 nmol given simultaneously with Bc; for lung damage, H&E histology: mouse, in vivo
Method: (§1) FIGS. 7A-7G: HMGB1 promotes clearance of S. cenocepaca from mice without inducing sepsis. C57BL/6 mice were challenged with 10^7 CFU intratracheally, and either simultaneously (prevention) or 24 h later (treatment) received 0.2 nmol of HMGB1 valiant. (FIG. 7A) Aggregates of B. cenocepacia were visible by fluorescence microscopy in lung sections probed with an α-B. cenocepacia antibody. For prevention, (FIG. 7B) bronchoalveolar lavage (BAL) collected 18 h post-inoculation (hpi) was analyzed for CFU. (FIG. 7C) Neutrophils in BAL were quantified by differential cell counting. (FIG. 7D) Lung tissue collected 72hpi was fixed, embedded, sectioned, and stained with hematoxylin & eosin (10× magnification). For treatment, 72hpi (FIG. 7E) CFUs were quantified in BAL. (FIG. 7F) Neutrophil recruitment was analyzed 24 h after intraperitoneal (i.p.) administration of HMGB1 valiants by fluorescence-activated cell sorting of peritoneal lavage stained with α-CD45, α-CD11b, and αLy-6G. (FIG. 7G) Serum TNF-α. was measured by ELISA in mice injected i.p. with 0.2 nmol HMGB1 valiants, 5 mg/kg LPS, or both. LoD: limit of detection. Bars represent SD. *P<0.05.
Applicant's novel approach of using a non-antimicrobial agent like HMGB1 protein and its variants for the treatment of biofilm related infections epitomizes a radical departure from classic therapeutic concepts. Full length HMGB1 and the smallest variant tested to date with the greatest disruption activity found in vitro, B Box and the modified B Box (mB Box) where the cysteine at position 106 was mutated to a serine to abrogate its inflammatory inducing ability, were tested in vivo for biofilm disruption and inflammatory activity (FIG. 7).
rHMGB1 and mHMGB1 disrupt biofilms in two distinct animal models but the inflammatory response is strongly attenuated with Cys to Ser mutations: Applicant tested both rHMGB1 and mHMGB1 for their ability to treat middle ear infection and the corresponding inflammatory response using a well-established chinchilla model of experimental OM due to NTHI49,67,68 wherein adhered mucosal biofilm formation plays a key role in pathogenesis (FIG. 8A). The middle ear of mixed sex, outbred adult chinchillas were inoculated with 1000 CFU NTHI by transbullar injection. At days 4 and 5 post-challenge, at which time there is abundant biofilm present in the middle ear space, […] of rHMGB1, mHMGB1, or diluent was delivered directly to the middle ear (2 total treatments). On day 6, animals were sacrificed and middle ears were imaged and blindly scored for biofilm that remained (FIG. 8A) and mucosal inflammation (FIG. 8B). […] In contrast, MEFs from mHMGB1-treated animals had increased anti-inflammatory cytokines [IL-4 (2-fold), IL-10 (5-fold)] […] Next, Applicant determined whether rHMGB1 or mHMGB1 could prevent or […] biofilm development. For prevention, adult C57BL/6 mice were challenged with 10^7 CFU of Bc intratracheally (i.t.), and 0.2 nmol of rHMGB1 or mHMGB1 was added simultaneously. After 18 h, mice were euthanized, and bronchoalveolar lavage (BAL) and lungs were collected. Bc formed aggregates that were readily visible in lung sections probed with Bc antibody (FIG. 7A). Tissue was homogenized and CFUs were enumerated. […] This same animal model was then used to investigate lung damage 72 h post-challenge with Bc and administration of rHMGB1 or mHMGB1. Lungs were collected and tissue was fixed, embedded in paraffin, sectioned, and stained with Haematoxylin and Eosin (H&E). […] Next, Applicant assessed the ability of rHMGB1 and mHMGB1 to treat established Bc infection. Mice were challenged as above and 0.2 nmol rHMGB1 or mHMGB1 was administered 24 h later. 48 h after treatment, mice were euthanized and BAL and lungs were collected and processed as above. […] To further validate the reduced pro-inflammatory activity of mHMGB1, Applicant used an in vivo model of chemotaxis to determine relative ability to recruit neutrophils70,71. […]

serum TNF-alpha (TNF-α) = format: in vivo, mice; details: 24 h; for serum TNF elicited on their own: 0.2 nmol endotoxin free protein i.p., naive mice; for additional pro-inflammatory signaling in LPS-primed mice: 0.2 nmol i.p. with LPS 5 mg/kg
Method: as §1
Mice were monitored for 24 h for signs of sepsis, then serum TNF-alpha (TNF-α) levels were measured by ELISA as a surrogate for sepsis induction. […] It has been reported, that compared to our doses, >450-fold for B Box alone, or 4 doses of 2-fold greater amounts of rHMGB1 in 40 h with lipopolysaccharide (LPS)-primed mice20 are required to induce sepsis. In addition, these endotoxin-free polypeptides were tested for anti-biofilm activity in vitro as described above and found to maintain full function against UPEC and Bc biofilms (data not shown).

rHMGB1: tagless human recombinant full length HMGB1 (1-215) expressed in E. coli
Bc CFU in lung tissue (B. cenocepacia): significantly fewer | Bc CFU in BAL (B. cenocepacia): significantly fewer Bc in BAL | aggregate biofilm formation / development in vivo (B. cenocepacia): prevent biofilm formation in vivo | lung damage, H&E histology (B. cenocepacia): severe inflammation and an increased neutrophil response | serum TNF elicited on their own (serum TNF-alpha (TNF-α)): neither rHMGB1, B Box, nor mB Box elicited detectable TNF | additional pro-inflammatory signaling in LPS-primed mice (serum TNF-alpha (TNF-α)): none induced additional pro-inflammatory signaling

B1: mHMGB1: engineered C45S variant of full length rHMGB1 that mimics the reduced form of HMGB1 (protein, UniProt P09429 1-215, looked up, variant C45S)
chain: MGKGDPKKPRGKMSSYAFFVQTCREEHKKKHPDASVNFSEFSKKSSERWKTMSAKEKGKFEDMAKADKARYEREMKTYIPPKGETKKKFKDPNAPKRPPSAFFLFCSEYRPKIKGEHPGLSIGDVAKKLGEMWNNTAADDKQPYEKKAAKLKEKYEKDIAAYRAKGKPDAAKKGVVKAEKSKKKKEEEEDEEDEEDEEEEEDEEDEDEEEDDDDE
modifications: full-length
notes: engineered C45S variant of full length rHMGB1 that mimics the reduced form of HMGB1
inflammatory response in the lung model (B. cenocepacia; 0.2 nmol): did not enhance the inflammatory response | Bc CFU in lung tissue (B. cenocepacia): significantly fewer | Bc CFU in BAL (B. cenocepacia): significantly fewer Bc in BAL | aggregate biofilm formation / development in vivo (B. cenocepacia): inhibited aggregate biofilm formation | lung damage, H&E histology (B. cenocepacia): more closely resembled uninfected mouse lungs

B2: B-linker Box: HMGB1 B Box with N- and C-terminal linker (80-179; 80 to 176 in b258), 97 amino acid (protein, UniProt P09429 80-179, looked up, fragment)
chain: PPKGETKKKFKDPNAPKRPPSAFFLFCSEYRPKIKGEHPGLSIGDVAKKLGEMWNNTAADDKQPYEKKAAKLKEKYEKDIAAYRAKGKPDAAKKGVVKAE
Bc CFU in BAL (B. cenocepacia): decreased CFU in BAL | aggregate biofilm formation / development in vivo (B. cenocepacia; listed as B Box): inhibit biofilm development in vivo | aggregate biofilm formation / development in vivo (B. cenocepacia; listed as B box): prevent biofilm formation in vivo | serum TNF elicited on their own (serum TNF-alpha (TNF-α)): neither rHMGB1, B Box, nor mB Box elicited detectable TNF | additional pro-inflammatory signaling in LPS-primed mice (serum TNF-alpha (TNF-α)): none induced additional pro-inflammatory signaling
